We go through ten molecules from US20240209084A1 (CYTOARM, published 2024).

Residue numbers refer to the chain shown, from its start.

In assay [1] the target is T1, CD19 (human, UniProt P15391 20-556).
T1 construct: whole, on cells; also called CD19^+ B cell lymphoma (Raji)
T1 sequence (looked up): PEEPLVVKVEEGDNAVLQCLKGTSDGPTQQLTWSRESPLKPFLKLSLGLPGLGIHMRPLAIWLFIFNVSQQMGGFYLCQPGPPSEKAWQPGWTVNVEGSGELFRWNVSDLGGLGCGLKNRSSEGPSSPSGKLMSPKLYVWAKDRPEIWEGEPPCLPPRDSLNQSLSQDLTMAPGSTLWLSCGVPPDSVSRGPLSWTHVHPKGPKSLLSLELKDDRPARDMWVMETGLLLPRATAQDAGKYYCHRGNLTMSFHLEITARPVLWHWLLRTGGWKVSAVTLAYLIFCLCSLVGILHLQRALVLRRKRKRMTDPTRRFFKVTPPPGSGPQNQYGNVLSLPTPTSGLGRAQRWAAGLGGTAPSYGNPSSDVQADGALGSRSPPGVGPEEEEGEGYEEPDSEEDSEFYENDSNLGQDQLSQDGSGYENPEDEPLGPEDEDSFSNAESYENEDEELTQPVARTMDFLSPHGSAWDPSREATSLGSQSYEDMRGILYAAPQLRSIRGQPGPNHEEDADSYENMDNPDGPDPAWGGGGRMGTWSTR
In words: flow cytometry on Raji cells (CD19+), FITC goat anti-human IgG Fab. For orientation: Flow cytometry measures light scatter and fluorescence of single cells or particles in a stream.
Method: (§1) Samples were analyzed with FITC conjugated Goat anti-Human IgG Fab antibody and flow cytometry.

The next assay addresses T2, HGFR (human, UniProt P08581 25-1390).
T2 construct: whole, on cells; also called cMET; hepatocyte growth factor receptor
The assay can be described thus: flow cytometry on A549 cells (HGFR+), FITC goat anti-human IgG Fab.

A further assay deals with T3, CD47 (human, UniProt Q08722 19-323).
T3 construct: whole, on cells; also called CD47^+ breast cancer (MCF7/HER2)
In words: flow cytometry on MCF-7/HER2 cells (CD47+), FITC goat anti-human IgG Fab.

In a further assay the target is T4, PSMA (human, UniProt Q04609 1-750).
T4 construct: whole, on cells; also called prostate-specific membrane antigen; PSMA^+ Prostate cancer (LNCaP)
The assay can be described thus: flow cytometry on LNCaP cells (PSMA+), FITC goat anti-human IgG Fab.

For a further assay, the target named is T5, EpCAM (human, UniProt P16422 24-314).
T5 construct: whole, on cells; also called epithelial cell adhesion molecule; EpCAM^+ prostate cancer (LNCaP)
T5 sequence (looked up): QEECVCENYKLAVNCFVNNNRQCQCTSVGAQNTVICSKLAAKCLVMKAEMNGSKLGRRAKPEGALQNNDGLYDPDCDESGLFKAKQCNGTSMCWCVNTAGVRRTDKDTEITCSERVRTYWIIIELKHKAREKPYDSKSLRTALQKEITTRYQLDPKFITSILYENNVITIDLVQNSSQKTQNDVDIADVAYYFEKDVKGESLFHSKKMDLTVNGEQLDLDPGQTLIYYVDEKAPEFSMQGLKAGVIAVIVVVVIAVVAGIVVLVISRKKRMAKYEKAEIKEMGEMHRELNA
In words: flow cytometry on LNCaP cells (EpCAM+), FITC goat anti-human IgG Fab.

The next assay concerns the target T6, CD33 (human, UniProt P20138 18-364).
T6 construct: whole, on cells; also called CD33^+ human acute myeloid leukemia (HL-60)
In words: flow cytometry on HL-60 cells (CD33+), FITC goat anti-human IgG Fab.

Assay [2] addresses T1, CD19. The assay can be described thus: flow cytometry titration on Raji cells (CD19+), FITC goat anti-human IgG Fab.
Method: FIG. 19B: binding activity to CD19⁺ B cells lymphoma (Raji). […] Fluorescent signal on cell surface was detected using flow cytometry.
Binding abilities of the BsAbs against CD3⁺ T cells (Jurkat) and CD19⁺ B cells lymphoma (Raji) were analyzed using flow cytometry.
The next assay addresses T7, CD3 (human, UniProt P07766 23-207).
T7 construct: whole, on cells; CD3 is a multi-chain complex; also called CD3 on CD3-positive T cells; CD3^+ T cells (Jurkat)
The assay can be described thus: flow cytometry titration on Jurkat cells (CD3+), FITC goat anti-human IgG Fab.

T4 sequence (Q04609 whole entry): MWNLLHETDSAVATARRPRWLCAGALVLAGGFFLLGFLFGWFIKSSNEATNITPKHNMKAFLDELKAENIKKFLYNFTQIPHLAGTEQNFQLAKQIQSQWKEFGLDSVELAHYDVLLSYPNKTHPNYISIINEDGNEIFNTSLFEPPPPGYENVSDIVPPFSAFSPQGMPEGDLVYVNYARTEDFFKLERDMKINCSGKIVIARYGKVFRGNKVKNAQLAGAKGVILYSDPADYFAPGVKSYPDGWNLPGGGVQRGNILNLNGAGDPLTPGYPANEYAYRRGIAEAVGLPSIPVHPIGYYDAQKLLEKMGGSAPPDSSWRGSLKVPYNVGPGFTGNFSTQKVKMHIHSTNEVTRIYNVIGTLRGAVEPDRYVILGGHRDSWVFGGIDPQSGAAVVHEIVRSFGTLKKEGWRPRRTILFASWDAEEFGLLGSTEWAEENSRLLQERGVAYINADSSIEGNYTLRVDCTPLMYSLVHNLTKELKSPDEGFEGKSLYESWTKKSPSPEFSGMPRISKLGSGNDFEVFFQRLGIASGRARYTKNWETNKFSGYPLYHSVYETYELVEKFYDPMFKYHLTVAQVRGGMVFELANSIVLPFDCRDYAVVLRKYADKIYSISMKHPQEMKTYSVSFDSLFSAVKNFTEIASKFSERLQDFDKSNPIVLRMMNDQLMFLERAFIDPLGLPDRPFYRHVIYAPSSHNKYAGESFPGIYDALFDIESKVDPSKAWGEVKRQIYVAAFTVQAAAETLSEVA
T7 sequence (P07766 23-207): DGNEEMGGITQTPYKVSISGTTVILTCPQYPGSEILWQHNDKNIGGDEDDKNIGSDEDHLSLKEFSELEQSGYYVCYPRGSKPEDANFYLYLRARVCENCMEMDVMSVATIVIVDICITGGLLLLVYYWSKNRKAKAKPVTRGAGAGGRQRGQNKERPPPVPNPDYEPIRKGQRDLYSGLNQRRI
T6 sequence (P20138 18-364): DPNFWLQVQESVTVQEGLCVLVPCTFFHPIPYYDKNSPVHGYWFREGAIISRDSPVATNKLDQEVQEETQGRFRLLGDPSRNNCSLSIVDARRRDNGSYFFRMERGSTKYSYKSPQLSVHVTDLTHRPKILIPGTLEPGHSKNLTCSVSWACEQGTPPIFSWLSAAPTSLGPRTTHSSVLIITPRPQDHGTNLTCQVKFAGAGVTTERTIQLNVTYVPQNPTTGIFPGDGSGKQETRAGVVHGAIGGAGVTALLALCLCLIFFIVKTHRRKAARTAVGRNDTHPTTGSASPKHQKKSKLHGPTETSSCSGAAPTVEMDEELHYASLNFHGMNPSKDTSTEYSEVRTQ
T2 sequence (P08581 25-1390): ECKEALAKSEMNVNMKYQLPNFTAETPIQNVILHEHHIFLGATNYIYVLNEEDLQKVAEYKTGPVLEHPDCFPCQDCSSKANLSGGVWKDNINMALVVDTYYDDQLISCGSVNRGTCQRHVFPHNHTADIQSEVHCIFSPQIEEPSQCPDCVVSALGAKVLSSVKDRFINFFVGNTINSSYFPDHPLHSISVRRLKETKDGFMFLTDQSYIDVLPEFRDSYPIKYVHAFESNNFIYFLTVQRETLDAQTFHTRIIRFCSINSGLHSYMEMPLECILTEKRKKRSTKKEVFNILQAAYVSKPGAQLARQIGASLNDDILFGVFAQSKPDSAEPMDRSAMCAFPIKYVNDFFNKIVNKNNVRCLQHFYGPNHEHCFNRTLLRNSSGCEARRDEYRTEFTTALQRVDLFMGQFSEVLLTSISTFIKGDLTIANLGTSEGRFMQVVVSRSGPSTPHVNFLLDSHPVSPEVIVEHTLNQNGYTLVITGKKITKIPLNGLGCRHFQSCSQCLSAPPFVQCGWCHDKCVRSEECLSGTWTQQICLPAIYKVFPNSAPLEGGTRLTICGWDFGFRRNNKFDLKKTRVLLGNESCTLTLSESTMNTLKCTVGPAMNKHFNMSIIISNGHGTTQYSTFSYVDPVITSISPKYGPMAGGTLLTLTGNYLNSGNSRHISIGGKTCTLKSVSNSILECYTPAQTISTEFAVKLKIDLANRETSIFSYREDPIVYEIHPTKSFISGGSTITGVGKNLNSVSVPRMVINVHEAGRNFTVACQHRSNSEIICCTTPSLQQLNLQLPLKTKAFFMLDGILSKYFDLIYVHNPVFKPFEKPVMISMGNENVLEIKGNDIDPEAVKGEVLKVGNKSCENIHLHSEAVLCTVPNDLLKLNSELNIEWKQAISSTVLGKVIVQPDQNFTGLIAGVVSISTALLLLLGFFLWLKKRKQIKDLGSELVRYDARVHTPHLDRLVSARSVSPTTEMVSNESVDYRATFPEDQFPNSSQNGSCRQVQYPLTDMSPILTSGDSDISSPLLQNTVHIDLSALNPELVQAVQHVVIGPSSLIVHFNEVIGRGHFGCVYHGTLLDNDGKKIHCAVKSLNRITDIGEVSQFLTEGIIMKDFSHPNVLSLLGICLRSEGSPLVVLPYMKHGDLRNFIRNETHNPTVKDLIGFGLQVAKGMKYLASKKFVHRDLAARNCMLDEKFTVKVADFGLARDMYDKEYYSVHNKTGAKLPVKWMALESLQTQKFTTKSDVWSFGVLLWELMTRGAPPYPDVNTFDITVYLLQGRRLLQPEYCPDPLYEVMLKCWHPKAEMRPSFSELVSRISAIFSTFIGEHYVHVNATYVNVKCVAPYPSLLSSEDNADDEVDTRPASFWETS
Method for CD33: as §1
Method for CD47: as §1
Method for EpCAM: as §1
Method for HGFR: as §1
Method for PSMA: as §1

B1: CTA03Fab/CTAT02scFv (bispecific antibody)
heavy: EVQLLESGGGLVQPGGSLRLSCAASGFTFSSFPMAWVRQAPGKGLEWVSTISTSGGRTYYRDSVKGRFTISRDNSKNTLYLQMNSLRAEDTAVYYCAKFRQYSGGFDYWGQGTLVTVSSASTKGPSVFPLAPSSKSTSGGTAALGCLVKDYFPEPVTVSWNSGALTSGVHTFPAVLQSSGLYSLSSVVTVPSSSLGTQTYICNVNHKPSNTKVDKKVEPKSCGGGSGGGEVKLQESGPGLVAPSQSLSVTCTVSGVSLPDYGVSWIRQPPRKGLEWLGVIWGSETTYYNSALKSRLTIIKDNSKSQVFLKMNSLQTDDTAIYYCAKHYYYGGSYAMDYWGQGTSVTVSSGGGGSGGGGSGGGGSDIQMTQTTSSLSASLGDRVTISCRASQDISKYLNWYQQKPDGTVKLLIYHTSRLHSGVPSRFSGSGSGTDYSLTISNLEQEDIATYFCQQGNTLPYTFGGGTKLEIT
light: DIQLTQPNSVSTSLGSTVKLSCTLSSGNIENNYVHWYQLYEGRSPTTMIYDDDKRPDGVPDRFSGSIDRSSNSAFLTIHNVAIEDEAIYFCHSYVSSFNVFGGGTKLTVLRQPKAAPSVTLFPPSSEELQANKATLVCLISDFYPGAVTVAWKADSSPVKAGVETTTPSKQSNNKYAASSYLSLTPEQWKSHRSYSCQVTHEGSTVEKTVAPTECS
notes: also called anti-CD3Fab/anti-CD19scFv; parent CTA03Fab/CTAT02scFv BsAb
Consider B1, for which, in the assay with CD19 [1], the binding result is “binds”.

B2: CTA03Fab/CTAT12scFv (bispecific antibody)
heavy: EVQLLESGGGLVQPGGSLRLSCAASGFTFSSFPMAWVRQAPGKGLEWVSTISTSGGRTYYRDSVKGRFTISRDNSKNTLYLQMNSLRAEDTAVYYCAKFRQYSGGFDYWGQGTLVTVSSASTKGPSVFPLAPSSKSTSGGTAALGCLVKDYFPEPVTVSWNSGALTSGVHTFPAVLQSSGLYSLSSVVTVPSSSLGTQTYICNVNHKPSNTKVDKKVEPKSCGGGSGGGEVQLVESGGGLVQPGGSLRLSCAASGYTFTSYWLHWVRQAPGKGLEWVGMIDPSNSDTRFNPNFKDRFTISADTSKNTAYLQMNSLRAEDTAVYYCATYRSYVTPLDYWGQGTLVTVSSGGGGSGGGGSGGGGSDIQMTQSPSSLSASVGDRVTITCKSSQSLLYTSSQKNYLAWYQQKPGKAPKLLIYWASTRESGVPSRFSGSGSGTDFTLTISSLQPEDFATYYCQQYYAYPWTFGQGTKVEIK
light: B1 light
notes: also called antiCD3Fab/anti-HGFRscFv
B2: the binding result with HGFR is on record as “binds”.

B3: CTA03Fab/CTAT13scFv (bispecific antibody)
heavy: EVQLLESGGGLVQPGGSLRLSCAASGFTFSSFPMAWVRQAPGKGLEWVSTISTSGGRTYYRDSVKGRFTISRDNSKNTLYLQMNSLRAEDTAVYYCAKFRQYSGGFDYWGQGTLVTVSSASTKGPSVFPLAPSSKSTSGGTAALGCLVKDYFPEPVTVSWNSGALTSGVHTFPAVLQSSGLYSLSSVVTVPSSSLGTQTYICNVNHKPSNTKVDKKVEPKSCGGGSGGGQVQLVQSGAEVKKPGASVKVSCKASGYTFTNYNMHWVRQAPGQRLEWMGTIYPGNDDTSYNQKFKDRVTITADTSASTAYMELSSLRSEDTAVYYCARGGYRAMDYWGQGTLVTVSSGGGGSGGGGSGGGGSDIVMTQSPLSLPVTPGEPASISCRSSQSIVYSNGNTYLGWYLQKPGQSPQLLIYKVSNRFSGVPDRFSGSGSGTDFTLKISRVEAEDVGVYYCFQGSHVPYTFGQGTKLEIK
light: B1 light
notes: also called antiCD3Fab/anti-CD47scFv
Turning to B3, the binding result in the assay with CD47 is reported as “binds”.

B4: CTA03Fab/CTAT05scFv (bispecific antibody)
heavy: EVQLLESGGGLVQPGGSLRLSCAASGFTFSSFPMAWVRQAPGKGLEWVSTISTSGGRTYYRDSVKGRFTISRDNSKNTLYLQMNSLRAEDTAVYYCAKFRQYSGGFDYWGQGTLVTVSSASTKGPSVFPLAPSSKSTSGGTAALGCLVKDYFPEPVTVSWNSGALTSGVHTFPAVLQSSGLYSLSSVVTVPSSSLGTQTYICNVNHKPSNTKVDKKVEPKSCGGGSGGGEVQLVQSGAEVKKPGASVKISCKTSGYTFTEYTIHWVKQASGKGLEWIGNINPNNGGTTYNQKFEDRATLTVDKSTSTAYMELSSLRSEDTAVYYCAAGWNFDYWGQGTTVTVSSGGGGSGGGGSGGGGSDIVMTQSPSSLSASVGDRVTITCKASQDVGTAVDWYQQKPGKAPKLLIYWASTRHTGVPDRFTGSGSGTDFTLTISSLQPEDFADYFCQQYNSYPLTFGGGTKLEIK
light: B1 light
notes: also called antiCD3Fab/anti-PSMAscFv
Consider B4, for which the binding result with PSMA is “binds”.

B5: CTA03Fab/CTAT07scFv (bispecific antibody)
heavy: EVQLLESGGGLVQPGGSLRLSCAASGFTFSSFPMAWVRQAPGKGLEWVSTISTSGGRTYYRDSVKGRFTISRDNSKNTLYLQMNSLRAEDTAVYYCAKFRQYSGGFDYWGQGTLVTVSSASTKGPSVFPLAPSSKSTSGGTAALGCLVKDYFPEPVTVSWNSGALTSGVHTFPAVLQSSGLYSLSSVVTVPSSSLGTQTYICNVNHKPSNTKVDKKVEPKSCGGGSGGGEVQLVQSGPGLVQPGGSVRISCAASGYTFTNYGMNWVKQAPGKGLEWMGWINTYTGESTYADSFKGRFTFSLDTSASAAYLQINSLRAEDTAVYYCARFAIKGDYWGQGTLLTVSSGGGGSGGGGSGGGGSDIQMTQSPSSLSASVGDRVTITCRSTKSLLHSNGITYLYWYQQKPGKAPKLLIYQMSNLASGVPSRFSSSGSGTDFTLTISSLQPEDFATYYCAQNLEIPRTFGQGTKVELK
light: B1 light
notes: also called antiCD3Fab/anti-EpCAMscFv
Regarding B5, the binding result with EpCAM is “binds”.

B6: CTA03Fab/CTAT11scFv (bispecific antibody)
heavy: EVQLLESGGGLVQPGGSLRLSCAASGFTFSSFPMAWVRQAPGKGLEWVSTISTSGGRTYYRDSVKGRFTISRDNSKNTLYLQMNSLRAEDTAVYYCAKFRQYSGGFDYWGQGTLVTVSSASTKGPSVFPLAPSSKSTSGGTAALGCLVKDYFPEPVTVSWNSGALTSGVHTFPAVLQSSGLYSLSSVVTVPSSSLGTQTYICNVNHKPSNTKVDKKVEPKSCGGGSGGGEVQLVQSGAEVKKPGSSVKVSCKASGYTITDSNIHWVRQAPGQSLEWIGYIYPYNGGTDYNQKFKNRATLTVDNPTNTAYMELSSLRSEDTAFYYCVNGNPWLAYWGQGTLVTVSSGGGGSGGGGSGGGGSDIQLTQSPSTLSASVGDRVTITCRASESLDNYGIRFLTWFQQKPGKAPKLLMYAASNQGSGVPSRFSGSGSGTEFTLTISSLQPDDFATYYCQQTKEVPWSFGQGTKVEVK
light: B1 light
notes: also called antiCD3Fab/anti-CD33scFv
Turning to B6, the binding result in the assay with CD33 is “binds”.

B7: CTA03-02Fab/CTAT02-02scFv (bispecific antibody)
heavy: B1 heavy with D405E
light: B1 light with D57E
notes: also called CTA03Fab(VLD57E)/CTAT02scFv(VLD41E)
Regarding B7, the binding result with CD19 [2] is on record as “binds”. Further, the concentration for a half-maximal effect (EC50 (read off the curve)) (usually the concentration at which the effect is half-maximal) in the assay with CD3 is ~0.2 µg/mL.

B8: CTA03-01Fab/CTAT02-02scFv (bispecific antibody)
heavy: B1 heavy with D405E
light: B1 light with G58A
notes: also called CTA03Fab(VLG58A)/CTAT02scFv(VLD41E)
As to B8, the concentration for a half-maximal effect (EC50 (read off the curve)) in the assay with CD19 [2] is ~1 µg/mL.

B9: CTA03-02Fab/CTAT02-01scFv (bispecific antibody)
heavy: B1 heavy with G406A
light: B1 light with D57E
notes: also called CTA03Fab(VLD57E)/CTAT02scFv(VLG42A)
As for B9, the binding result with CD19 [2] was “binds”.

B10: CTA03-01Fab/CTAT02-01scFv (bispecific antibody)
heavy: B1 heavy with G406A
light: B1 light with G58A
notes: also called CTA03Fab(VLG58A)/CTAT02scFv(VLG42A)
B10: in the assay with CD19 [2], the binding result was “binds”.
